Laboratory results reported in paper PMC9352773.

Biological target: ScNtx-NT647, fluorescently labeled variant of ScNtx
Test: MST; 5 nM ScNtx-NT647 held constant, Torpedo nAChR in asolectin-MSP1E3D1 nanodiscs titrated 0.5 nM to 1 μM; PBS pH 7.4, 0.05% Tween, 20 °C, high MST power, 4 % excitation power, triplicate; apparent affinity

Torpedo muscle-type nicotinic acetylcholine receptor, native, purified, reconstituted in asolectin-MSP1E3D1 lipidic nanodiscs (from UniProt P02710 25-461; P02714 18-506; P02718 22-522; P02712 25-493) (complex)
Kd: 28 nM
